Laboratory results taken from the supplement of paper PMC10724198.
± gives the standard deviation of the averaged measurements.

Tested on: Saccharomyces cerevisiae
Assay: protein stability index of tFT-peptide fusion (C-terminal peptide) (PSI (0-1 scale)); higher = more stable (slower turnover)
Details: temperature: 30 C
Method: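 MPS profiling in S. cerevisiae of the yeast C-terminome library: the last 12 aa of each annotated ORF are fused to the C-terminus of a sfGFP-mCherry timer, after a GGGS linker. Cells are FACS-sorted into 8 mCherry/sfGFP bins and deep-sequenced. PSI runs from 0 (unstable) to 1 (stable); wild type and das1Δ backgrounds, two technical replicates each.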

[1] = genetic background: das1 deletion

| Sequence | protein stability index [1] | protein stability index (genetic background: wild type) |
| --- | --- | --- |
| RRKLKGRWFLSH [MRX14 C-terminal 12 aa] | 0.702 ± 0.0078 | 0.562 ± 0.0085 |
| QILLDKLNAVKK [HIT1 C-terminal 12 aa] | 0.66 ± 0.03 | 0.653 ± 0.019 |
| RDLQSALVRQLL [CAD1 C-terminal 12 aa] | 0.718 ± 0.025 | 0.68 ± 0.021 |
| DLVKASSTLNVS [SDL1 C-terminal 12 aa] | 0.682 ± 0.0043 | 0.672 ± 0.0084 |
| GPTIPISATIRE [RCK2 C-terminal 12 aa] | 0.65756 ± 0.00065 | 0.735 ± 0.021 |
| SSDEEENEKELP [PWP2 C-terminal 12 aa] | 0.67854 ± 0.00042 | 0.705 ± 0.039 |
| DYWRKRGISSVY [ECM38 C-terminal 12 aa] | 0.68703 ± 0.00044 | 0.72719 ± 0.0003 |
| NESLSTILLYII [YKR033C C-terminal 12 aa] | 0.644 ± 0.008 | 0.561 ± 0.0068 |
| WVAHSKTKLATK [CAB2 C-terminal 12 aa] | 0.677 ± 0.014 | 0.70267 ± 0.00017 |
| SSLDEVLAKDKD [MIN8 C-terminal 12 aa] | 0.736 ± 0.018 | 0.6795 ± 0.0061 |
| NIHQTDYIYARL [BUD16 C-terminal 12 aa] | 0.798 ± 0.031 | 0.708 ± 0.12 |
| IDNVIISGKDEY [CCT5 C-terminal 12 aa] | 0.7033 ± 0.0056 | 0.6529 ± 0.0048 |
| CLSLDFVVPRPK [SHR5 C-terminal 12 aa] | 0.74 ± 0.016 | 0.697 ± 0.048 |
| TIIYPLFIFFSL [YMR105W-A C-terminal 12 aa] | 0.312 ± 0.022 | 0.225 ± 0.0044 |
| GAAVAAGVAFLF [YDR524C-B C-terminal 12 aa] | 0.717 ± 0.018 | 0.717 ± 0.044 |
| NIGSPLGAPKKK [MBF1 C-terminal 12 aa] | 0.696 ± 0.031 | 0.7008 ± 0.0064 |
| SKFIEKFQDIVS [MED1 C-terminal 12 aa] | 0.701 ± 0.014 | 0.712 ± 0.018 |
| AKRDILPSPVSV [LPP1 C-terminal 12 aa] | 0.6165 ± 0.005 | 0.646 ± 0.04 |
| KSALSKTLGLNK [NHA1 C-terminal 12 aa] | 0.699 ± 0.014 | 0.7038 ± 0.0048 |
| AIRTRKFDNNKR [RED1 C-terminal 12 aa] | 0.716 ± 0.046 | 0.6648 ± 0.0027 |
| KSPSITVNEFFH [RCN2 C-terminal 12 aa] | 0.698 ± 0.01 | 0.734 ± 0.021 |

| Sequence | protein stability index [1] | protein stability index (genetic background: wild type) |
| --- | --- | --- |
| AIWIFYIDFRVH [YCL021W-A C-terminal 12 aa] | 0.227 ± 0.024 | 0.201 ± 0.011 |
| VESPTLFCVCTQ [YPR170C C-terminal 12 aa] | 0.6115 ± 0.0024 | 0.66 ± 0.028 |
| RREKRNKALKER [CGR1 C-terminal 12 aa] | 0.7064 ± 0.0034 | 0.6945 ± 0.0019 |
| TKNLVPGFSDLM [SEC61 C-terminal 12 aa] | 0.708 ± 0.012 | 0.676 ± 0.011 |
| FLSMTYASLVNK [YLR294C C-terminal 12 aa] | 0.713 ± 0.022 | 0.706 ± 0.062 |
| KHGTMQFYWRKT [YOR225W C-terminal 12 aa] | 0.692 ± 0.0073 | 0.386 ± 0.003 |
| PTPPTPPTPPQQ [ECM19 C-terminal 12 aa] | 0.701 ± 0.014 | 0.687 ± 0.027 |
| NRHSYCFSNLAP [YOL085W-A C-terminal 12 aa] | 0.739 ± 0.0025 | 0.691 ± 0.023 |
| EWVVPEHMLGPK [FUM1 C-terminal 12 aa] | 0.741 ± 0.0091 | 0.739 ± 0.041 |
| LKKPRSGFHVIV [YFR006W C-terminal 12 aa] | 0.69 ± 0.027 | 0.6371 ± 0.0052 |
| DYYFRTGVKRLQ [ARP10 C-terminal 12 aa] | 0.705 ± 0.028 | 0.732 ± 0.044 |
| SNWARIFFCHHD [YDL186W C-terminal 12 aa] | 0.75 ± 0.015 | 0.713 ± 0.028 |
| DNDDDAGAVPTS [CDC13 C-terminal 12 aa] | 0.7113 ± 0.0012 | 0.684 ± 0.011 |
| FAQNTNKDVELN [NGG1 C-terminal 12 aa] | 0.682 ± 0.028 | 0.666 ± 0.046 |
| TNDRLQSILHDL [MEF2 C-terminal 12 aa] | 0.7148 ± 0.0071 | 0.702 ± 0.013 |
| SASGKKKINKNN [ELO1 C-terminal 12 aa] | 0.6991 ± 0.0036 | 0.723 ± 0.042 |
| LVASNFFYAETK [TFS1 C-terminal 12 aa] | 0.7066 ± 0.00069 | 0.687 ± 0.028 |
| DDNEPDEEANRA [RXT2 C-terminal 12 aa] | 0.672 ± 0.012 | 0.6656 ± 0.0043 |
| LIYLNETLGTRL [IRC19 C-terminal 12 aa] | 0.705 ± 0.015 | 0.671 ± 0.003 |
| KRSLRRNARKGL [ESC8 C-terminal 12 aa] | 0.721 ± 0.0077 | 0.687 ± 0.026 |
| QKKEEAKHKASE [UFD2 C-terminal 12 aa] | 0.711 ± 0.0087 | 0.721 ± 0.067 |

| Sequence | protein stability index [1] | protein stability index (genetic background: wild type) |
| --- | --- | --- |
| LYPLFEAVPFRR [YBL096C C-terminal 12 aa] | 0.729 ± 0.014 | 0.734 ± 0.01 |
| IYDWAGEYPLAV [SHM2 C-terminal 12 aa] | 0.707 ± 0.026 | 0.737 ± 0.0049 |
| STAVRSIDALKN [HSP31 C-terminal 12 aa] | 0.701 ± 0.042 | 0.687 ± 0.0074 |
| LNSIDPALISKY [AFT2 C-terminal 12 aa] | 0.744 ± 0.035 | 0.741 ± 0.036 |
| FLIWRKKVSRNK [YOR329W-A C-terminal 12 aa] | 0.73 ± 0.054 | 0.727 ± 0.11 |
| LFTAMRTVLFGK [CBP6 C-terminal 12 aa] | 0.704 ± 0.0044 | 0.72 ± 0.14 |
| FKSTPIIYSNVI [YER006C-A C-terminal 12 aa] | 0.724 ± 0.027 | 0.642 ± 0.0074 |
| SDDNNDENMDLD [SSE2 C-terminal 12 aa] | 0.694 ± 0.014 | 0.663 ± 0.018 |
| VIKQQNHQTTKI [HKR1 C-terminal 12 aa] | 0.68 ± 0.037 | 0.705 ± 0.055 |
| NIFYQLLLTVNY [YBR013C C-terminal 12 aa] | 0.229 ± 0.0065 | 0.272 ± 0.02 |
| RLANIQSFFQRQ [TVP23 C-terminal 12 aa] | 0.7155 ± 0.0018 | 0.726 ± 0.064 |
| TFLYYYFPLPTN [YPL080C C-terminal 12 aa] | 0.656 ± 0.029 | 0.69 ± 0.028 |
| FLVLKIIKALLW [MTC4 C-terminal 12 aa] | 0.526 ± 0.013 | 0.523 ± 0.026 |
| ELLQSFSLVLTL [YKL153W C-terminal 12 aa] | 0.64297 ± 0.00021 | 0.632 ± 0.024 |
| EAQLSCSEESLA [COS1 C-terminal 12 aa] | 0.69057 ± 5e-06 | 0.683 ± 0.024 |
| THKKPGFENYSI [IRC13 C-terminal 12 aa] | 0.70632 ± 0.00041 | 0.704 ± 0.017 |
| HYPLNSIPFTVT [YMR326C C-terminal 12 aa] | 0.706 ± 0.019 | 0.775 ± 0.087 |
| TFFDIRQKFVVV [BOP2 C-terminal 12 aa] | 0.493 ± 0.012 | 0.44744 ± 0.00038 |
| AKLSEGTSFRRK [RPS27A C-terminal 12 aa] | 0.6952 ± 0.0023 | 0.681 ± 0.037 |
| VVGEDEKDDFFE [EFG1 C-terminal 12 aa] | 0.721 ± 0.024 | 0.691 ± 0.026 |
| EKRLQKEIKSIE [IDP1 C-terminal 12 aa] | 0.734 ± 0.012 | 0.673 ± 0.06 |

| Sequence | protein stability index [1] | protein stability index (genetic background: wild type) |
| --- | --- | --- |
| LSVKWAVNTLMS [SRP101 C-terminal 12 aa] | 0.671 ± 0.014 | 0.568 ± 0.039 |
| QNRFISINKIFW [YDR133C C-terminal 12 aa] | 0.7034 ± 0.0032 | 0.6671 ± 0.0016 |
| EFDLADDRRYDI [TPO5 C-terminal 12 aa] | 0.705 ± 0.03 | 0.682 ± 0.011 |
| RTSPIDNVSNTH [NUT2 C-terminal 12 aa] | 0.693 ± 0.0018 | 0.693 ± 0.046 |
| KEASRRFDAGKI [SOD2 C-terminal 12 aa] | 0.6778 ± 0.0059 | 0.6795 ± 0.0053 |
| RSVYDYNGSLKV [CSR1 C-terminal 12 aa] | 0.686 ± 0.012 | 0.691 ± 0.015 |
| LELLLAADYLSI [ELC1 C-terminal 12 aa] | 0.698 ± 0.034 | 0.682 ± 0.049 |
| EYGGYGEYGNGS [RTG1 C-terminal 12 aa] | 0.6949 ± 0.0018 | 0.674 ± 0.0096 |
| IADELDWLKFGI [GLN3 C-terminal 12 aa] | 0.906 ± 0.028 | 0.882 ± 0.019 |
| GAMSEGKTGQLN [YLR036C C-terminal 12 aa] | 0.699 ± 0.02 | 0.6988 ± 0.0014 |
| EYTDFMSWMQDN [YER186C C-terminal 12 aa] | 0.74 ± 0.01 | 0.646 ± 0.15 |
| ALKHGEKAFNIN [NEM1 C-terminal 12 aa] | 0.678 ± 0.017 | 0.6766 ± 0.0023 |
| SQSKIKAKIRPE [YJL193W C-terminal 12 aa] | 0.7134 ± 0.0044 | 0.666 ± 0.011 |
| YEIEPDFDRLAV [SVP26 C-terminal 12 aa] | 0.691 ± 0.022 | 0.681 ± 0.021 |
| DLESLFKEKLSI [ALA1 C-terminal 12 aa] | 0.7111 ± 0.0015 | 0.705 ± 0.02 |
| EDDFGPKPKFFI [SWE1 C-terminal 12 aa] | 0.71 ± 0.011 | 0.683 ± 0.039 |
| VARRITDHTCLM [YLR364C-A C-terminal 12 aa] | 0.677 ± 0.0084 | 0.696 ± 0.031 |
| KLSNWLFGWNDL [ASM4 C-terminal 12 aa] | 0.753 ± 0.019 | 0.746 ± 0.052 |
| FKIFCNCIQSLA [YPL199C C-terminal 12 aa] | 0.341 ± 0.0075 | 0.323 ± 0.009 |
